Results as given in patent US20240287172A1 (SCIRHOM, published 2024).

T1: hiR2-FL-H620R-T7 (human, UniProt Q6PJF5 1-856)
T1 sequence: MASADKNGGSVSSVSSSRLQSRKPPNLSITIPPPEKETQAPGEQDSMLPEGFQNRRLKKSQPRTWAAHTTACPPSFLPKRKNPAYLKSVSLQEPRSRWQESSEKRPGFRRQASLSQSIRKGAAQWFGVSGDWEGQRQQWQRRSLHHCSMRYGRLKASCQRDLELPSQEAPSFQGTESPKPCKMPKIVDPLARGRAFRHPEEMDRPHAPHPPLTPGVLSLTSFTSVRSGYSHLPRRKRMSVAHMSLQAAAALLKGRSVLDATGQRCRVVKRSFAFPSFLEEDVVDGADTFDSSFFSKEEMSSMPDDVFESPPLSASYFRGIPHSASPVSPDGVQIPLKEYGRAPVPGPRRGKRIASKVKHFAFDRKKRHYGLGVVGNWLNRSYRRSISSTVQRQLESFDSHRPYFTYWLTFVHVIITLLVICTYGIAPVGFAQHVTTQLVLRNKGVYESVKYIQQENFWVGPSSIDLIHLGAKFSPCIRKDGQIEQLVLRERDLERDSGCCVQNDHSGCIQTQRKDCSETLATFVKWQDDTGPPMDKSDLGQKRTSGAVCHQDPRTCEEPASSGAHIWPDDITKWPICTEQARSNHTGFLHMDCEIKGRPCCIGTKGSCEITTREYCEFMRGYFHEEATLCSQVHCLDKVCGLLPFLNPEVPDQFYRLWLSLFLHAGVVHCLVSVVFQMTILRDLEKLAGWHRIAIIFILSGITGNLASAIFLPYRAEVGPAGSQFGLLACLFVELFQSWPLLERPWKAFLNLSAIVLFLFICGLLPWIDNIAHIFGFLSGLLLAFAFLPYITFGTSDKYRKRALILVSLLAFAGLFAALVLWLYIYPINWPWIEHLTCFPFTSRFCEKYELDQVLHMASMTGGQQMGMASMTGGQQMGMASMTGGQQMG


Target: T1, hiR2-FL-H620R-T7
Test: FACS, MEF-DKO cells, 3 µg/ml
Description: In brief, immortalized MEF-DKO hiR2-FL-G563D-T7, MEF-DKO hiR2-FL-A564P-T7, MEF-DKO hiR2-FL-1566E-T7, MEF-DKO hiR2-FL-D569E-T7, MEF-DKO hiR2-FL-E579K-T7, MEF-DKO hiR2-FL-Q580N-T7, MEF-DKO hiR2-FL-A581S-T7, MEF-DKO hiR2-FL-R582A-T7, MEF-DKO hiR2-FL-S583G-T7, MEF-DKO hiR2-FL-G587N-T7, MEF-DKO hiR2-FL-F588H-T7, MEF-DKO hiR2-FL-L589P-T7, MEF-DKO hiR2-FL-E594V-T7, MEF-DKO hiR2-FL-K596T-T7, MEF-DKO hiR2-FL-S607R-T7, MEF-DKO hiR2-FL-T612S-T7, MEF-DKO hiR2-FL-E617D-T7, MEF-DKO hiR2-FL-H620R-T7, MEF-DKO hiR2-FL-L636M-T7, MEF-DKO hiR2-FL-K638D-T7, MEF-DKO hiR2-FL-1771F-T7, MEF-DKO hiR2-FL-1825V-T7, MEF-DKO hiR2-FL-1828V-T7, MEF-DKO hiR2-FL-N829R-T7, MEF-DKO hiR2-FL-W830C-T7, MEF-DKO hiR2-FL-P831E-T7, MEF-DKO hiR2-FL-I833C-T7, MEF-DKO hiR2-FL-H835F-T7, MEF-DKO hiR2-FL-F8391-T7, MEF-DKO hiR2-FL-S843D-T7, MEF-DKO hiR2-FL-Q853A-T7, MEF-DKO hiR2-FL-V854Q-T7 and MEF-DKO hiR2-FL-R844K-T7 cells were harvested with 10 mM EDTA in PBS, washed and resuspended in FACS buffer (PBS, 3% FBS, 0.05% sodium azide), and seeded in Nunc U-bottom 96-well plates (Thermo Fisher Scientific, USA) at approximately 1×10⁵ cells per well. To pellet cells and remove supernatants, the plates were centrifuged at 1,500 rpm and 4° C. for 3 minutes. For primary staining, cells were resuspended in 100 μl per well of either FACS buffer alone (controls) or the purified antibodies 3, 5, 16, 22, 34, 42, 43, 44, 48, and 50 of the invention at 3 μg/ml in FACS buffer and incubated on ice for 1 hour. Afterwards, plates were centrifuged at 1,500 rpm and 4° C. for 3 minutes and washed twice with 200 μl per well of FACS buffer. For secondary staining, cells were spun down and resuspended in 100 μl per well of PE-conjugated goat anti-mouse IgG F(ab′)2 detection fragment (Dianova, Germany) diluted 1:100 in FACS buffer. Protected from light, the cell suspensions were incubated on ice for 1 hour. Plates were then centrifuged at 1,500 rpm and 4° C. for 3 minutes and washed three times with 200 μl per well of FACS buffer. Finally, cells were resuspended in 150 μl per well of FACS buffer and analyzed using a BD Accuri™ C6 Plus flow cytometer (Becton Dickinson, Germany).

Binder | loss of binding vs wild type
antibody 43 (antibody, V domains shown, mouse IgG, kappa light chain; also called clone #43; purified antibody 43) VH: QVALKESGPGILQPSQTLSLTCSFSGFSLSTFGMGVGWIRQSSGKGLEWLANIWWDDDKYYNPALKSRLTISKDASKNQAFLKIANVDTADTATYYCARIGNYGSNYWYFDVWGTGTTVTVSS VL: QIVLTQSPAIMSASPGERVTMTCSANSRISYMYWYQQKPGSSPRLLIYDTSNLASGVPVRFSGSGSGTSYSLTISRMEAEDAATYNCQQWSSYPLTFGAGTKLELK | ≥ 30%
antibody 48 (antibody, V domains shown, mouse IgG, kappa light chain; also called clone #48; purified antibody 48) VH: QVQLQQSGTELVRPGTSVKVSCKASGYAFTNYLIEWVKQRPGQGLEWIGVINPGSGFTKYNEKFKGKATLTADKSSSTVYMHLSSLTSEDSAVYFCARGLYRAMDYWGQGTSVTVSS VL: DIQMTQSPASQSASLGESVTITCLASQTIATWLAWYQQKPGKSPQLLIYGATTLADGVPSRFSGGGSGTKFSFKISSLQAEDFVSYYCQQLYSTPYTFGGGTKLEIK | ≥ 30%
antibody 50 (antibody, V domains shown, mouse IgG, kappa light chain; also called clone #50; purified antibody 50) VH: QVQLQQSGAELVRPGASVKVSCKASGYAFSNYLIEWVKQRPGQGLEWIGVINPGSGFTKYNEKFKGKATLTADKSSSTAYMQLSSLTSEDSAVYFCARGLYRAMDYWGQGTSVTVSS VL: DIQMTQSPASQSASLGESVTITCLASQTIGTWLAWYQQKPGKSPQLLIYAAASLADGVPSRFSGGGSGTKFSFKISSLQAEDFVNYYCQQIYSTPYTFGGGTKLEIK | ≥ 30%
